Changes are numbered by the printed parent chain. Names and notes keep the numbering of the source.
T1: recombinant human lymphotoxin-α homotrimer (human LTα3) (human, UniProt P01374 35-205)
T1 construct: Coated on plates in the ELISAs; also called rhLTα; lymphotoxin-α3 trimer
T1 sequence (looked up): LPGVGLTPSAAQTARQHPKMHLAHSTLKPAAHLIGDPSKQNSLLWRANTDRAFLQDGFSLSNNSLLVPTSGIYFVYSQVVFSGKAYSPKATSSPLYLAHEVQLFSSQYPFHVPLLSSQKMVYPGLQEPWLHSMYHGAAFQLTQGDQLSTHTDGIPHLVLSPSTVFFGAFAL

B1: humanized 2C8.v2 (antibody, IgG1, V domains shown)
VH: EVQLVESGGGLVQPGGSLRLSCAASGYTFTSYVIHWVRQAPGKGLEWVGYNNPYNDGTNYNEKFKGRATISSDKSKNTAYLQMNSLRAEDTAVYYCSRPTMLPWFAYWGQGTLVTVSS
VL: DIQMTQSPSSLSASVGDRVTITCRASQAVSSAVAWYQQKPGKAPKLQIYSASHRYTGVPSRFSGSGSGTDFTLTISSLQPEDFATYYCQQHYSTPWTFGQGTKVEIKR
notes: also called Version 2
B2: phage-displayed 2C8.v2 Fab, wild-type phagemid clone (Fab, V domains shown)
VH: B1 VH
VL: B1 VL
notes: also called wild-type 2C8.v2
B3: humanized 2C8.v12 (antibody, V domains shown)
VH: B1 VH with A68F
VL: B1 VL with Q47L
notes: Human kappa / IgG1; also called Version 12; copies: 2 + 2
B4: phage-displayed 2C8 Fab clone G7 (Fab, V domains shown)
VH: B1 VH
VL: B1 VL with Q90E, H91N
notes: also called 2C8 clone G7
B5: phage-displayed 2C8 Fab clone C12 (Fab, V domains shown)
VH: B1 VH
VL: B1 VL with Q90E
B6: phage-displayed 2C8 Fab clone H6 (Fab, V domains shown)
VH: B1 VH
VL: B1 VL with Q90E, H91V
notes: also called 2C8 clone H6
B7: phage-displayed 2C8 Fab clone G12 (Fab, V domains shown)
VH: B1 VH
VL: B1 VL with Q90K, H91T, Y92F
B8: phage-displayed 2C8 Fab clone H9 (Fab, V domains shown)
VH: B1 VH
VL: B1 VL with S93Y
B9: humanized 2C8.v7 (antibody, V domains shown)
VH: B1 VH
VL: B1 VL with Q47L
notes: Human kappa / IgG1; copies: 2 + 2
B10: phage-displayed 2C8 Fab clone D8 (Fab, V domains shown)
VH: B1 VH
VL: B1 VL with H91F, T94V
B11: phage-displayed 2C8 Fab clone G2 (Fab, V domains shown)
VH: B1 VH
VL: B1 VL with H91Y
B12: humanized 3F12.v2 (antibody, IgG1, name in Kabat numbering, V domains shown)
VH: EVQLVESGGGLVQPGGSLRLSCAASGYTFSSYWIEWVRQAPGKGLEWVGEISPGSGSTNYNEEFKGRATFSADNSKNTLYLQMNSLRAEDTAVYYCADGYHGYWGQGTLVTVSS
VL: DIQMTQSPSSLSASVGDRVTITCKSSQSLLYSTNQKNFLAWYQQKPGKAPKLLIYWASTRDSGVPSRFSGSGSGTDFTLTISSLQPEDFATYYCQQYYSYPRTFGQGTKVEIKR
notes: Built back from 3F12.v5; human kappa / IgG1 constant domains; also called I69F
B13: 3F12 version 13 (3F12.v5 with Y31A, CDR-L1) (antibody, IgG1, V domains shown)
VH: B12 VH with L79A
VL: DIQMTQSPSSLSASVGDRVTITCKSSQSLLASTNQKNFLAWYQQKPGKAPKLLIYWASTRDSGVPSRFSGSGSGTDFTLTISSLQPEDFATYYCQQYYSYPRTFGQGTKVEIK
notes: Alanine-scan variant of 3F12.v5; human kappa / IgG1
B14: 3F12 version 16 (3F12.v5 with K36A, CDR-L1) (antibody, IgG1, V domains shown)
VH: B12 VH with L79A
VL: B13 VL with A31Y, K36A
notes: as for B13
B15: 3F12 version 9 (3F12.v5 with Y99A, CDR-H3) (antibody, IgG1, V domains shown)
VH: B12 VH with L79A, Y100A
VL: B13 VL with A31Y
notes: as for B13
B16: 3F12 version 18 (3F12.v5 with Q89A, CDR-L3) (antibody, IgG1, V domains shown)
VH: B12 VH with L79A
VL: B13 VL with A31Y, Q95A
notes: as for B13
B17: 3F12 version 22 (3F12.v5 with Y94A, CDR-L3) (antibody, IgG1, V domains shown)
VH: B12 VH with L79A
VL: B13 VL with A31Y, Y100A
notes: as for B13
B18: 3F12 version 21 (3F12.v5 with S93A, CDR-L3) (antibody, IgG1, V domains shown)
VH: B12 VH with L79A
VL: B13 VL with A31Y, S99A
notes: Alanine-scan variant of 3F12.v5; human kappa / IgG1; also called 3F12 clone 21
B19: 3F12 version 28 (3F12.v5 with Y59A, CDR-H2) (antibody, IgG1, V domains shown)
VH: B12 VH with Y60A, L79A
VL: B13 VL with A31Y
notes: as for B13
B20: 3F12 version 14 of Table 2 (3F12.v5 with T33A, CDR-L1) (antibody, IgG1, V domains shown)
VH: B12 VH with L79A
VL: B13 VL with A31Y, T33A
notes: Alanine-scan variant of 3F12.v5; human kappa / IgG1; also called 3F12 clone 14
B21: 3F12 version 23 (3F12.v5 with R96A, CDR-L3) (antibody, IgG1, V domains shown)
VH: B12 VH with L79A
VL: B13 VL with A31Y, R102A
notes: as for B13
B22: humanized 3F12.v4 (antibody, IgG1, name in Kabat numbering, V domains shown)
VH: B12 VH with F70I, L79A
VL: B12 VL
notes: Built back from 3F12.v5; human kappa / IgG1 constant domains; also called L78A
B23: 3F12 version 27 (3F12.v5 with N58A, CDR-H2) (antibody, IgG1, V domains shown)
VH: B12 VH with N59A, L79A
VL: B13 VL with A31Y
notes: as for B13
B24: 3F12 version 31 (3F12.v5 with E62A, CDR-H2) (antibody, IgG1, V domains shown)
VH: B12 VH with E63A, L79A
VL: B13 VL with A31Y
notes: as for B13
B25: 3F12 version 30 (3F12.v5 with E61A, CDR-H2) (antibody, IgG1, V domains shown)
VH: B12 VH with E62A, L79A
VL: B13 VL with A31Y
notes: as for B13
B26: 3F12 version 29 (3F12.v5 with N60A, CDR-H2) (antibody, IgG1, V domains shown)
VH: B12 VH with N61A, L79A
VL: B13 VL with A31Y
notes: as for B13
B27: 3F12 version 25 (3F12.v5 with G55A, CDR-H2) (antibody, IgG1, V domains shown)
VH: B12 VH with G56A, L79A
VL: B13 VL with A31Y
notes: as for B13
B28: 3F12 version 19 (3F12.v5 with Y91A, CDR-L3) (antibody, IgG1, V domains shown)
VH: B12 VH with L79A
VL: B13 VL with A31Y, Y97A
notes: as for B13
B29: 3F12 version 20 (3F12.v5 with Y92A, CDR-L3) (antibody, IgG1, V domains shown)
VH: B12 VH with L79A
VL: B13 VL with A31Y, Y98A
notes: Alanine-scan variant of 3F12.v5; human kappa / IgG1; also called 3F12 clone 20
B30: 3F12 version 17 (3F12.v5 with F38A, CDR-L1) (antibody, IgG1, V domains shown)
VH: B12 VH with L79A
VL: B13 VL with A31Y, F38A
notes: Alanine-scan variant of 3F12.v5; human kappa / IgG1; also called 3F12 clone 17
B31: 3F12 version 15 (3F12.v5 with N34A, CDR-L1) (antibody, IgG1, V domains shown)
VH: B12 VH with L79A
VL: B13 VL with A31Y, N34A
notes: Alanine-scan variant of 3F12.v5; human kappa / IgG1; also called 3F12 clone 15
B32: 3F12 version 24 (3F12.v5 with G53A, CDR-H2) (antibody, IgG1, V domains shown)
VH: B12 VH with G54A, L79A
VL: B13 VL with A31Y
notes: as for B13
B33: 3F12 version 26 (3F12.v5 with S56A, CDR-H2) (antibody, IgG1, V domains shown)
VH: B12 VH with S57A, L79A
VL: B13 VL with A31Y
notes: as for B13
B34: 3F12 version 12 (3F12.v5 with Y102A, CDR-H3) (antibody, IgG1, V domains shown)
VH: B12 VH with L79A, Y103A
VL: B13 VL with A31Y
notes: Alanine-scan variant of 3F12.v5; human kappa / IgG1; also called 3F12 clone 12

How the values were obtained:
[1] = biological target: T1, recombinant human lymphotoxin-α …; assay: BIACORE (rhLTα)
[2] = biological target: T1, recombinant human lymphotoxin-α …; assay: plate ELISA on coated human LTα
[3] = biological target: T1, recombinant human lymphotoxin-α …; assay: phage competitive ELISA: rhLTα in solution competes with plate-coated LTα
Procedure: For the first round, phage were captured for 2 hours against 2 μg/ml plate-coated LTα at ambient temperature. The second and third rounds of selection were performed at ambient temperature by capturing phage for 30 minutes with 2 nM biotinylated LTα in solution phase, followed by capture on neutravidin-coated plates. The highest affinity clone was identified using a competitive ELISA. Constant concentrations of phage clones (normalized by solid-phase LTα binding OD) were incubated with increasing concentrations of LTα (0-50 nM) in solution before capture on a plate coated with 2 μg/ml LTα.

[4] = biological target: T1, recombinant human lymphotoxin-α …; assay: plate ELISA on coated LTα
[5] = biological target: T1, recombinant human lymphotoxin-α …; assay: plate-based ELISA against LTα

Binder	relative binding (EC50 of the variant / EC50 of version 5) [5] [ratio]	further results
B1		Kd [1]: 0.2 nM; kon [1]: 600000 M⁻¹ s⁻¹; ELISA IC50 ratio [2]: 1.7 ratio
B2		IC50 [3]: 3.14 nM
B3		Kd [1]: 0.07 nM; ELISA IC50 ratio [2]: 1 ratio
B4		IC50 [3]: 0.57 nM
B5		IC50 [3]: 3.41 nM
B6		IC50 [3]: 1.1 nM
B7		IC50 [3]: 5.34 nM
B8		IC50 [3]: 3.8 nM
B9		Kd [1]: 0.4 nM; ELISA IC50 ratio [2]: 1.2 ratio
B10		IC50 [3]: 137 nM
B11		IC50 [3]: 4.51 nM
B12		Relative binding [4]: > 1000 fold down from the chimera
B13	3.4	
B14	3.7	
B15	10	
B16	4.2	
B17	14.3	

Binder	relative binding (EC50 of the variant / EC50 of version 5) [5] [ratio]	further results
B18	0.82	
B19	2.73	
B20	0.72	
B21	18.2	
B22		Relative binding [4]: > 500 fold down from the chimera
B23	1.7	
B24	1.93	
B25	1.78	
B26	2.31	
B27	1.2	
B28	2.3	
B29	0.71	
B30	0.32	
B31	0.49	
B32	34.1	
B33	1.07	
B34	0.81	

From patent US20130011412A1 (Genentech, published 2013)
